From patent publication US20240024501A1 (BONUM THERAPEUTICS, published 2024) come the findings set out here.

Numbering of substitutions follows the chain as printed.

First the molecules themselves.
B1: i47_A12 (scFv)
scFv: MSTSTQVQLVQSGAEVKKPGSSVKVSCKASGYTFINNDINWVRQAPGQGLEWMGGTIPIFGVHIYAQKFQGRVTITADESTSTAYMELSSLRSEDTAVYYCVSSVGAGAYYYYGMDVWGQGTLVTVSSASGGGGSGGGGSGGGGSHASDIQMTQSPSSLSASVGDRVTITCQASQDISNYLNWYQQKPGKAPKLLIYAASSLQSGVPSRFSGSGSGTDFTLTISSLQPEDFATYYCQQSYSLPYTFGQGTRLEIKRAAAGSGSEQKLISEEDLGKPIPNPLLGLDST
B2: A03 (scFv)
scFv: MSTSTQVQLVQSGAEVKKPGASVKVSCKASGYTFTGYYMHWVRQAPGQGLEWMGWMDPNNDDADYAQRFQGRVTMTRDTSTSTVYMELSSLRSEDTAVYYCASLAAAGPYYYYGMDVWGQGTLVTVSSASGGGGSGGGGSGGGGSHASDIQMTQSPSSLSASVGDRVTITCRASQSINNYLNWYQQKPGKAPKLLIYGASNLETGVPSRFSGSGSGTDFTLTISSLQPEDFATYYCQQSYGTPLTFGGGTKVEIKRAAAGSGSEQKLISEEDLGKPIPNPLLGLDST
B3: B07 (scFv)
scFv: MSTSTQVQLVQSGAEVKKPGASVKVSCKASGYTFTGYYMHWVRQAPGQGLEWMGWMDPNNDDADYAQRFQGRVTMTRDTSTSTVYMELSSLRSEDTAVYYCASLAAAGPYYYYGMDVWGQGTLVTVSSASGGGGSGGGGSGGGGSHASDIQMTQSPSSLSASVGDRVTITCQASQDISNYLNWYQQKPGKAPKLLIYGASILEAGVPSRFSGSGSGTDFTLTISSLQPEDFATYYCQQSYSAPITFGQGTRLEIKRAAAGSGSEQKLISEEDLGKPIPNPLLGLDST
B4: PDL1-IFN-R01-C11 (scFv)
scFv: QVQLVQSGAEVKKPGASVKVSCKASGGTFSSYAISWVRQAPGQGLEWMGWMDANNGNTGYAQKFQGRVTMTRDTSTSTVYMELSSLRSEDTAVYYCARSLFPTIFGVEVAFDIWGQGTLVTVSSASGGGGSGGGGSGGGGSHASDIQMTQSPSSLSASVGDRVTITCRASQSVSSYLNWYQQKPGKAPKLLIYKASSLESGVPSRFSGSGSGTDFTLTISSLQPEDFATYYCQQSSSTPLSFGGGTKVEIK
notes: expressed cell-free as Myc tag + scFv + V5 tag
B5: PDL1-IFN-R01-B12 (scFv)
scFv: QVQLVQSGAEVKKPGASVKVSCKASGNTFTDYYMHWVRQAPGQGLEWMGWMNPNSGNTGYAQKFQGRVTMTRDTSTSTVYMELSSLRSEDTAVYYCARSLFPTIFGVEVAFDIWGQGTLVTVSSASGGGGSGGGGSGGGGSHASDIQMTQSPSSLSASVGDRVTITCQASQDISNYLNWYQQKPGKAPKLLIYAASSLQSGVPSRFSGSGSGTDFTLTISSLQPEDFATYYCQQSYSTPPTFGQGTRLEIK
notes: as for B4
B6: PDL1-IFN-R01-A11 (scFv)
scFv: B5 scFv with N27G, T30S, D31S, S174T, Q199E, T238I, P240I
notes: as for B4
B7: PDL1-IFN-R01-B09 (scFv)
scFv: B5 scFv with N27G, D31G, M51V, T238P, R247K
notes: as for B4
B8: Anti-IFN control (SEQ ID NO: 30) (scFv)
scFv: EVQLVESGGGLVQPGGSLRLSCATSGYTFTEYIIHWVRQAPGKGLEWVASINPDYDITNYNQRFKGRFTISLDKSKRTAYLQMNSLRAEDTAVYYCASWISDFFDYWGQGTLVTVSSASGGGGSGGGGSGGGGSHASDIQMTQSPSSLSASVGDRVTITCRASQSVSTSSYSYMHWYQQKPGKAPKVLISYASNLESGVPSRFSGSGSGTDFTLTISSLQPEDFATYYCQHSWGIPRTFGQGTKVEIK
notes: control scFv; also called Anti-IFNα control

The target in the first test is T1, LRRC15-hFc (Sino Biologicals, 15786-H02H) (UniProt Q8TF66 22-538).
T1 construct: also called LRRC15-Fc
T1 sequence (looked up): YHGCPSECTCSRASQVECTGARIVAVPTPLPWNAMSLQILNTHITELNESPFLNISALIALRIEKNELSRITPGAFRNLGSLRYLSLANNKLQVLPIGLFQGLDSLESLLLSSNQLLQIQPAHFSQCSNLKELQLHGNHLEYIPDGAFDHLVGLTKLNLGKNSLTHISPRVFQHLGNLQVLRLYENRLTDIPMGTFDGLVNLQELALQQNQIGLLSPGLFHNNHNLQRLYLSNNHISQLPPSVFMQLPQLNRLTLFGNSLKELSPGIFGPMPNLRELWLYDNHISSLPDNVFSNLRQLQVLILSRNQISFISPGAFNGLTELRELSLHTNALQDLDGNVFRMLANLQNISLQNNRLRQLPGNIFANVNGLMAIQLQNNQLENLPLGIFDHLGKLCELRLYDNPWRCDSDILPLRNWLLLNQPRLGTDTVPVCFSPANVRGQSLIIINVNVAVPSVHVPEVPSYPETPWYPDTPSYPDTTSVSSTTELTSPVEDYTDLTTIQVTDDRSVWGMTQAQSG
The test can be described thus: ELISA (Example 33): cell-free expressed scFv on LRRC15; x axis Log (concentration, nM).
Consider B1, for which the binding result is “binds”.

In the case of B2, the binding result is “binds”.

B3: the binding result was “binds”.

A further test deals with T2, PD-L1 (Eu-labeled) (UniProt Q9NZQ7 19-238, limits assumed, Eu label).
T2 construct: also called Eu-labeled PD-L1
The test can be described thus: HTRF.
Regarding B4, the “PDL1 Binding (HTRF signal)” value turned out to be 3040. Take B5: the “PDL1 Binding (HTRF signal)” value is 2980. Still for that read-out and setting: the value for B6 was 2960; that for B7 was 1380; that for B8 was 416.
